In US11674128:

Target: mini-SaCas9-3 with four tandem repeats of SpyTag fused to its C-terminal (Streptococcus pyogenes)
Experiment: cell-based or functional assay

SpyCatcher:VPR
expression of the enhanced blue fluorescent protein 2 (EBFP2) reporter gene compared to the negative control: 100 fold
